The source of these data is article PMC9795039, “Kindlin2 enables EphB/ephrinB bi-directional signaling to support vascular development” (Life Science Alliance, 2022).

The labels stand for the following.
B1: his-tagged human full-length kindlin2 [human] / his/Avi-tagged cytoplasmic tail of ephrinB2 WT [modified: biotinylated; biotinylated] [not stated] (parent complex)
chain 1: MALDGIRMPDGCYADGTWELSVHVTDLNRDVTLRVTGEVHIGGVMLKLVEKLDVKKDWSDHALWWEKKRTWLLKTHWTLDKYGIQADAKLQFTPQHKLLRLQLPNMKYVKVKVNFSDRVFKAVSDICKTFNIRHPEELSLLKKPRDPTKKKKKKLDDQSEDEALELEGPLITPGSGSIYSSPGLYSKTMTPTYDAHDGSPLSPTSAWFGDSALSEGNPGILAVSQPITSPEILAKMFKPQALLDKAKINQGWLDSSRSLMEQDVKENEALLLRFKYYSFFDLNPKYDAIRINQLYEQAKWAILLEEIECTEEEMMMFAALQYHINKLSIMTSENHLNNSDKEVDEVDAALSDLEITLEGGKTSTILGDITSIPELADYIKVFKPKKLTLKGYKQYWCTFKDTSISCYKSKEESSGTPAHQMNLRGCEVTPDVNISGQKFNIKLLIPVAEGMNEIWLRCDNEKQYAHWMAACRLASKGKTMADSSYNLEVQNILSFLKMQHLNPDPQLIPEQITTDITPECLVSPRYLKKYKNKQITARILEAHQNVAQMSLIEAKMRFIQAWQSLPEFGITHFIARFQGGKKEELIGIAYNRLIRMDASTGDAIKTWRFSNMKQWNVNWEIKMVTVEFADEVRLSFICTEVDCKVVHEFIGGYIFLSTRAKDQNESLDEEMFYKLTSGWV
chain 2: KYRRRHRKHSPQHTTTLSLSTLATPKRSGNNNGSEPSDIIIPLRTADSVFCPHYEKVSGDYGHPVYIVQEMPPQSPANIYYKV

The variants in this experiment derive from B1. In words: in vitro binding assay (pulldown on NeutrAvidin beads, Western blot densitometry); purified kindlin2; n = 3; read off a plot.
Consider chain 2 KYRRRHRKHSPQHTTTLSLSTLATPKRSGNNNGSEPSDIIIPLRTADSVFCPHYEKVSGDYGHPVYIVQEMPPQAPANIYYKV [chain 2 S75A], for which the percent of parent was ~105 % WT.
For chain 2 KYRRRHRKHSPQHTTTLSLSTLATPKRSGNNNGSEPSDIIIPLRTADSVFCPHYEKVSGDYGHPVYIVQEMPPQSPANIYAKV [chain 2 Y81A], the percent of parent was ~61 % WT.
For chain 2 KYRRRHRKHSPQHTTTLSLSTLATPKRSGNNNGSEPSDIIIPLRTADSVFCPHYEKVSGDYGHPVYIVQEMPPQSPAAIYYKV [chain 2 N78A] the value was ~107 % WT.
As to chain 2 KYRRRHRKHSPQHTTTLSLSTLATPKRSGNNNGSEPSDIIIPLRTADSVFCPHYEKVSGDYGHPVYIVQEMPPQSPAAAAAKV [chain 2 N78A, chain 2 I79A, chain 2 Y80A, chain 2 Y81A], the percent of parent is ~14 % WT.
chain 2 KYRRRHRKHSPQHTTTLSLSTLATPKRSGNNNGSEPSDIIIPLRTADSVFCPHYEKVSGDYGHPVYIVQEMPPQSPAAIYAKV [chain 2 N78A, chain 2 Y81A]: the percent of parent is ~36 % WT.
